Assays:
[1] = target: human neonatal Fc receptor (FcRn), heterodimer of alpha-FcRn and beta2 microglobulin (human) (UniProt P55899); experiment: SPR
[2] = target: human neonatal Fc receptor (FcRn), heterodimer of alpha-FcRn and beta2 microglobulin (human) (UniProt P55899); experiment: FcRn affinity chromatography

Chain of UniProt P55899 (P55899 24-365, chain 1 of 2): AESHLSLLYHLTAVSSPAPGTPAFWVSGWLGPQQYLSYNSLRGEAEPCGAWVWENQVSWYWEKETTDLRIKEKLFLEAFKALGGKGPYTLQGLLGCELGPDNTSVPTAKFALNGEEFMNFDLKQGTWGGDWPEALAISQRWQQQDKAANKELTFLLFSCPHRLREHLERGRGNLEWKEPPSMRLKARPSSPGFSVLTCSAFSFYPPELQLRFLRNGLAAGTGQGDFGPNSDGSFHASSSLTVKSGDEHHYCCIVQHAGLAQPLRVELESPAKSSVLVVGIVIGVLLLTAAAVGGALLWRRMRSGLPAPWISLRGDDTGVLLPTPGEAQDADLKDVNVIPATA
Chain of UniProt P55899 (P61769 21-119, chain 2 of 2, further chain): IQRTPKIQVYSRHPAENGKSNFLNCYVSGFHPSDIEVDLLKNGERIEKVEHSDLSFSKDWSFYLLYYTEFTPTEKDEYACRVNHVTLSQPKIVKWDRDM

Substance	Rel. KD (KD normalised to the KD of ustekinumab) [1]	FcRn column retention time [2]	FcRn column elution pH [2]
mAb 5 (ustekinumab CDRs on briakinumab) (antibody)	0.9	85.1 min	
mAb 1 (ustekinumab Fv + briakinumab constant domains) (antibody)	1	84.3 min	
IdeS-cleaved Fc region of briakinumab (domain or fragment)		85.7 min	
briakinumab (antibody)		93.7 min	7.9 pH
IdeS-cleaved Fc region of ustekinumab (domain or fragment)		85.2 min	
mAb 3 (ustekinumab HC + briakinumab LC) (from UniProt P01857 2-107) (antibody)		92.4 min	

From publication PMC4434771
